± gives the uncertainty stated by the source.
Assay: protein stability index of a GFP-peptide fusion (yeast GPS) (PSI 1-4); higher = more stable; sorted into four equal gates, so the index is relative within each strain
Conditions: doa10∆
Outline: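 Plasmids in a pooled yeast library fused tiled 17-residue yeast protein peptides downstream of GFP and also expressed Cherry. Mid-log cultures grown without leucine were sorted into four equal gates by GFP/Cherry fluorescence ratio. Each gate's plasmids were PCR-amplified and Illumina-sequenced, and reads were matched to strains by barcodes. The protein stability index is derived by multiplying each gate's read frequency by its gate number and summing the results.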

ERVSPTDIEEGMRVGVD [RPT1] and ESAPITAEDSWAVISAF [RPB2] are within error of each other in protein stability index: 3.16 ± 0.14 for the first, 3.17 ± 0.08 for the second.

Compared with ESDLYKLKECPFDMGGY [RPB2], ESDSKLQCHISGTTNFM [UBP6] is lower in protein stability index: 3.13 ± 0.076 for the first, 2.63 ± 0.23 for the second.

Compared with ESDTGLAPSHLWDIMGD [RPT1], ESGEFDFDLFKEVLPDL [YJL039C/NUP192] is higher in protein stability index: 2.91 ± 0.16 for the first, 3.43 ± 0.13 for the second.

ESIDVDMDAESNESQNG [SMC3] and ESKGNAFKHKRALVEHI [RPL19A] are within error of each other in protein stability index: 3.21 ± 0.094 for the first, 3.36 ± 0.087 for the second.

ESKQDGLSILFLTGQFA [YML103C/NUP188] and ESLTFNEFQLQWGKYQT [SWI1] are within error of each other in protein stability index: 2.79 ± 0.078 for the first, 2.86 ± 0.049 for the second.

First: ESNKRYRFFKKISEDPV [SNF12]
Second: ESPLSVAIQQGDIKPEF [YML103C/NUP188]
The protein stability index of the first is higher: 3.16 ± 0.16 for the first, 2.23 ± 0.11 for the second.

First: ESQEKYMEPFDLDLNEQ [NSL1]
Second: ESQYPIVTEQPSAEIRE [SWP82]
The protein stability index of the first is higher: 3.29 ± 0.068 for the first, 2.56 ± 0.04 for the second.

ESSKLMTVTKVSLPEGS [BRR2] and ESVPTPANAEPQAVTIT [ITC1] are within error of each other in protein stability index: 2.93 ± 0.22 for the first, 2.88 ± 0.084 for the second.

ETAKMIENMTKEKVSNG [FAS2] and ETEEIDPELLRSYIFGG [RPL5] are within error of each other in protein stability index: 3.41 ± 0.3 for the first, 3.22 ± 0.073 for the second.

ETELPTLSLPDSQDYIL [SMC1] and ETHETNISNAKLANFFS [YAR002W/NUP60] are within error of each other in protein stability index: 3.1 ± 0.043 for the first, 3.03 ± 0.12 for the second.

Compared with ETHSKKRKKEANEEPNT [ITC1], ETKSWINESAENFSNGI [MED1] is higher in protein stability index: 2.69 ± 0.096 for the first, 3.04 ± 0.062 for the second.

ETNGYDPFSIYGFSNKE [SNF5] and ETPEGQACGLVKNLSLM [RPB2] are within error of each other in protein stability index: 1.64 ± 0.047 for the first, 1.67 ± 0.13 for the second.

Going from ETQEIKENDTVMNTKLL [ESC2] to ETRPAQVILPMSPNHGT [FAS2], the protein stability index falls from 2.85 ± 0.086 to 2.43 ± 0.042.

Going from ETTIDDLPISSTDNEAI [SMC1] to EVAVPDRVAKVLTYPEK [RPO31], the protein stability index rises from 2.67 ± 0.069 to 2.97 ± 0.075.

Compared with EVTDKNYYYLFDKKSFF [PRP8], EVTEGQAEATEWAEENA [RPS0B] is lower in protein stability index: 2.92 ± 0.056 for the first, 2.44 ± 0.27 for the second.

Compared with EVTIEDALKVVLRTALV [RPS12], EVTKEEDIIANYASVYP [RRP43] is lower in protein stability index: 3.35 ± 0.11 for the first, 2.77 ± 0.07 for the second.

Going from EVTKGEKTYTKAPKIQR [RPS6A] to EVTKSSHVENLEEKLYQ [YIL149C/MLP2], the protein stability index falls from 3.17 ± 0.18 to 2.76 ± 0.073.

Compared with EVYGINEESTNERLEIN [SIR4], EWKSEFVVPTFGQDVSP [SNM1] is lower in protein stability index: 3.29 ± 0.16 for the first, 2.25 ± 0.052 for the second.

First: EYQIVYYNPQAGTKITI [RGR1]
Second: FAGVASMNVTLGVPRIK [RPO31]
The protein stability index of the first is lower: 2.15 ± 0.13 for the first, 2.82 ± 0.095 for the second.

Compared with FANYKLLLKKIIKDYVL [SRB4], FDDILKVGAEMMMQQQL [MED2] is higher in protein stability index: 2.41 ± 0.069 for the first, 2.66 ± 0.11 for the second.

Going from FDISMADLSSSEEEEDE [SSN2] to FDKVIYHLHPTFANPNR [TAF14], the protein stability index falls from 3.14 ± 0.079 to 1.49 ± 0.091.

Going from FDNVASVFMPLIFIACN [ECM29] to FDPVYTTVITVFLEFSL [YML103C/NUP188], the protein stability index falls from 2.9 ± 0.048 to 1.45 ± 0.043.

Going from FDRLVAGQIPTGWNAKT [FAS2] to FDSVIVENLTVAQECIA [SMC1], the protein stability index falls from 2.15 ± 0.18 to 1.69 ± 0.089.

First: FDVNNIDMHLIYGVEWL [YDL116W/NUP84]
Second: FEAQIDSVEFIFQAKRN [RPN10]
The protein stability index of the first is lower: 2.12 ± 0.059 for the first, 2.32 ± 0.11 for the second.

First: FEETKLSTTPTKSNRRV [SIR4]
Second: FENCYLEGNDIHALAAK [FAS1]
The protein stability index of the first is lower: 2.65 ± 0.1 for the first, 2.83 ± 0.053 for the second.

Going from FEQKGSQTTTNDSKEES [YLR335W/NUP2] to FEYLATVMYQRRSKMNP [PRE4], the protein stability index falls from 3.27 ± 0.12 to 2.11 ± 0.12.

First: FEYSKYRPLTPSSEVYS [RRP6]
Second: FFTNPNKKRPSSKKVFS [YOR098C/NUP1]
The protein stability index of the first is higher: 3.07 ± 0.086 for the first, 2.85 ± 0.059 for the second.

Compared with FGAKMSRTLILSILNEI [SIN4], FGAKSDENKAGATSKPA [YJL041W/NSP1] is higher in protein stability index: 1.84 ± 0.063 for the first, 3.25 ± 0.11 for the second.

First: FGHLKLALPVFHIGYFK [RPO31]
Second: FGINTNTTKTADTKAPT [YLR335W/NUP2]
The protein stability index of the first is lower: 1.17 ± 0.073 for the first, 3.4 ± 0.085 for the second.

Compared with FGKTVKDGPFYTGSMSL [RPC31], FGQRAVLKFAAHTGATP [RPS0A] is lower in protein stability index: 2.92 ± 0.15 for the first, 2.18 ± 0.082 for the second.

FIANEGVHTGQFIYAGK [RPL2A] and FIENFLTNDTFEKKLSI [YML103C/NUP188] are within error of each other in protein stability index: 2.98 ± 0.22 for the first, 3.18 ± 0.22 for the second.

Going from FIKEIHKSIELISNLLF [YCS4] to FIMVKGCIPGNRKRIVT [RPL3], the protein stability index falls from 1.89 ± 0.047 to 1.39 ± 0.063.

Going from FISNLPNVSDKYYLEES [NUT1] to FISSNDAFNMLSLTTVP [SNF6], the protein stability index falls from 2.16 ± 0.098 to 1.7 ± 0.054.

Compared with FIYDTEKNGGLGWDLDA [FAS2], FKATHILDFGPGGASGL [FAS1] is lower in protein stability index: 3.21 ± 0.088 for the first, 2.75 ± 0.08 for the second.

First: FKLDKDTSNWELSDSWR [YGL100W/SEH1]
Second: FKRVSQTFEAKLHFKDT [NUT1]
The protein stability index of the first is higher: 3.37 ± 0.068 for the first, 2.96 ± 0.082 for the second.

FKVQIIELLSYLVEAPW [YML103C/NUP188] and FLFAPELGAINLHALSM [SWI1] are within error of each other in protein stability index: 1.71 ± 0.091 for the first, 1.84 ± 0.087 for the second.

First: FLKLVLSESPVDFEKFE [SIN4]
Second: FLKVKGLVKQHLDSFNY [RET1]
The protein stability index of the first is lower: 2.58 ± 0.047 for the first, 3.09 ± 0.17 for the second.

Going from FLNDVIPTTKNLRLLVE [DLS1] to FLRPTYPDLCSIYDKWT [RPN1], the protein stability index falls from 3.28 ± 0.091 to 2.83 ± 0.064.

Going from FLSPYISTHLKTICNLL [IRR1] to FLSSFDDVLQTIITDCA [YJL039C/NUP192], the protein stability index rises from 1.57 ± 0.05 to 2.43 ± 0.045.

FMDETAVALAASDLVLI [SNU114] and FMLSDDEGMESIEMEEE [RRI2] are within error of each other in protein stability index: 2.55 ± 0.062 for the first, 2.59 ± 0.22 for the second.

Compared with FNITDNGVRALFHSCTR [GRR1], FNQFVDYTLQDIICEDS [RPB2] is higher in protein stability index: 1.53 ± 0.11 for the first, 2.72 ± 0.1 for the second.

First: FNTLVRIMSTRCMMAAQ [DIS3]
Second: FNVDDVLKFTFTGEKPI [MED8]
The protein stability index of the first is lower: 1.53 ± 0.07 for the first, 3.16 ± 0.094 for the second.

Compared with FNYVAVGDVSNLPYLDE [QCR2], FPKTTVAALRFTAGARA [RPL18A] is lower in protein stability index: 3.2 ± 0.095 for the first, 1.58 ± 0.15 for the second.

Compared with FPQYKLTTFANQVMMDR [ARP7], FQHILRLLNTNVDGNIK [RPS18A] is higher in protein stability index: 2.6 ± 0.096 for the first, 2.87 ± 0.05 for the second.

Going from FQITLSSDDLQNCWSLI [SSN8] to FQLPTTCVSMAPIQLKI [RGR1], the protein stability index falls from 2.11 ± 0.049 to 1.3 ± 0.051.

Compared with FQNTNTRSALKLVRESE [QCR2], FRNNKNDNYSSDMENDN [REC8] is higher in protein stability index: 2.7 ± 0.078 for the first, 3.44 ± 0.18 for the second.

Going from FRSLFFRSYMDQEKKYG [RPB2] to FRVQSQSNYGIYSSDAQ [NUT1], the protein stability index rises from 1.7 ± 0.051 to 2.03 ± 0.053.

First: FSFGAATPSAKEASQED [YLR335W/NUP2]
Second: FSFGAKANEKKESDESK [YJL041W/NSP1]
The protein stability index of the first is higher: 3.29 ± 0.062 for the first, 2.58 ± 0.12 for the second.

FSFSKSEEERKSSPISN [YOR098C/NUP1] and FSLLVKAEIPPEYAKVG [SIN4] are within error of each other in protein stability index: 2.48 ± 0.11 for the first, 2.54 ± 0.063 for the second.

With FSSNERYFFWLQEKNSG [RPN13] the protein stability index was 1.27 ± 0.048.
